B1: SEQ ID NO:1: shortest exonuclease III fragment of brain glycogen phosphorylase nucleic acid, ending 100 bp after the start codon (nucleic acid)
DNA: ATGGGCGAACCGCTGACGGACAGCGAGAAGCGGAAGCAGATCAGCGTGCGCGGCCTGGCGGGGCTAGGCGACGTGGCCGAGGTGCGGAAGAGCTTCAACCGGCACTTGCA
modifications: chemistry not fully specified
notes: shortest exonuclease III fragment of brain glycogen phosphorylase nucleic acid, ending 100 bp after the start codon
B2: SEQ ID NO:3: fragment of brain glycogen phosphorylase nucleic acid ending at position 140 (nucleic acid)
DNA: ATGGGCGAACCGCTGACGGACAGCGAGAAGCGGAAGCAGATCAGCGTGCGCGGCCTGGCGGGGCTAGGCGACGTGGCCGAG
modifications: chemistry not fully specified
B3: SEQ ID NO:2: fragment of brain glycogen phosphorylase nucleic acid ending at position 161 (nucleic acid)
DNA: ATGGGCGAACCGCTGACGGACAGCGAGAAGCGGAAGCAGATCAGCGTGCGCGGCCTGGCGGGGCTAGGCGACGTGGCCGAGGTGCGGAAGAGCTTCAACCGG
modifications: chemistry not fully specified

What follows are molecules tested on antigen recognized by CTL 246/76 (assay: TNF release from CTL 246/76 provoked by HOB cells transfected with cDNA fragment and HLA-A2). Details: fragment cotransfected with HLA-A2 into HOB cells.
Format: cell-based, human
Experimental: The transfection of HOB cells was made in duplicate wells. Briefly, samples of HOB cells were seeded, at 15,000 cells/well into tissue culture flat bottom microwells, in DMEM supplemented with 10% fetal calf serum. The cells were incubated overnight at 37° C., medium was removed and then replaced by 100 μl/well total volume of DMEM medium containing 20% Nu-Serum (Collaborative Research, Bedford, Mass.), 300 μg/ml DEAE-dextran, and 200 μM chloroquine, plus 100 ng of the LB373-MEL cDNA library cloned in pcDNAI/Amp and 50 ng of HLA-A2 cloned in pcDNAI/Amp. Following four hours of incubation at 37° C., the medium was removed, and replaced by 50 μl of PBS containing 10% dimethyl sulfoxide (DMSO). This medium was removed after two minutes and replaced by 200 μl of DMEM supplemented with 10% FCS.
Following this change in medium, HOB cells were incubated for 48 hours at 37° C. The transfectants then were screened with CTL 246/76. After first removing the medium, 2000 CTL 246/76 cells were added to each well in 100 μl of medium containing 25 U/ml IL-2. The amount of TNF present in the supernatant was then measured by testing its cytotoxicity for WEHI 164.13 cells. Most pools gave a TNF concentration below 5 pg/ml. cDNAs from pools which gave higher concentrations in both of the duplicate wells were cloned in bacteria. Their plasmid DNA was extracted and transfected into HOB cells with HLA-A2. The transfectants were screened with CTL 246/76. One cDNA clone gave a high TNF production by CTL 246/76. The cDNA was sequenced, compared with DNA sequence databases and determined to encode brain glycogen phosphorylase.
Fragments of the brain glycogen phosphorylase cDNA were prepared by exonuclease III digestion from the 3' end of the cDNA according to art standard procedures, were cloned into an expression vector and transfected into HOB cells with HLA-A2 as described above. As a positive control, the brain glycogen phosphorylase cDNA was cotransfected with HLA-A2 into HOB cells. These transfectants were used to provoke release of TNF from CTL 246/76 cells.
Shorter fragments were generated by PCR. […]

With B1 as the molecule, how does the “confers expression of the antigen recognized by CTL 246/76” value (from here on “confers expression”) read?
The value was “able to confer expression of the antigen”.

How did the “confers expression” value turn out when B2 was run?
Its value is “did not confer expression of the antigen”.

With B3 as the molecule, how does the “confers expression” value read?
The value was “did confer expression of the antigen”.

Source: US6096520A, “Brain glycogen phosphorylase cancer antigen” (Ludwig Institute for Cancer Research, priority 1998, dated 2000)
